Results: the supplement of paper PMC7125110
± gives the standard error. For some of these results: Fewer inactive variants are shown than the library holds.

B1: glmS ribozyme (parent)
chain: AUAAAAGCGCCAGAACUACAGAAAUGUAGUUGACGAGGAGGAGGUUUAUCGAAUUUUCGGCGGAUGCCUCCAAA

Experiments:
Settings in all cases: with glucosamine-6-phosphate
glucosamine-6-phosphate [1] = variants of: B1; experiment: kcat; higher = faster cleavage; RNA array
In short: (§1)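 Tracking of barcoded ribozyme variants used a hybridised Cy3 probe at 37 °C, after in situ transcription by E. coli RNA polymerase on sequenced MiSeq chips. The flowed solution held 40 μM to 10 mM glucosamine-6-phosphate in HEPES/KCl/Mg(OAc)2 buffer, and imaging ran over ~14 h. kobs was taken from exponential decay fits of normalised per-tile medians, and kcat and KM from weighted Michaelis–Menten fits.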

glucosamine-6-phosphate [2] = variants of: B1; experiment: self-cleavage kobs at 160 uM GlcN6P; higher = faster cleavage; RNA array
In short: as §1

glucosamine-6-phosphate [3] = variants of: B1; experiment: self-cleavage kobs at 640 uM GlcN6P; higher = faster cleavage; RNA array
In short: as §1

glucosamine-6-phosphate [4] = variants of: B1; experiment: self-cleavage kobs at 2500 uM GlcN6P; higher = faster cleavage; RNA array
In short: as §1

glucosamine-6-phosphate [5] = variants of: B1; experiment: self-cleavage kobs at 10000 uM GlcN6P; higher = faster cleavage; RNA array
In short: as §1

glucosamine-6-phosphate [6] = variants of: B1; experiment: KM; higher = weaker cofactor use; RNA array
In short: as §1

glucosamine-6-phosphate [7] = variants of: B1; experiment: self-cleavage kobs at 40 uM GlcN6P; higher = faster cleavage; RNA array
In short: as §1

Row | Variant | kcat (glucosamine-6-phosphate [1]) [s⁻¹] | self-cleavage kobs at 160 uM GlcN6P (glucosamine-6-phosphate [2]) [s⁻¹] | self-cleavage kobs at 640 uM GlcN6P (glucosamine-6-phosphate [3]) [s⁻¹] | self-cleavage kobs at 2500 uM GlcN6P (glucosamine-6-phosphate [4]) [s⁻¹] | self-cleavage kobs at 10000 uM GlcN6P (glucosamine-6-phosphate [5]) [s⁻¹] | KM (glucosamine-6-phosphate [6]) [µM] | self-cleavage kobs at 40 uM GlcN6P (glucosamine-6-phosphate [7]) [s⁻¹]
1 | G40C U55A | 9.7e-05 ± 1.9e-05 | 0.000138 ± 6.6e-05 | 0.000125 ± 2.3e-05 | 7.26e-05 ± 1.4e-05 | 0.000133 ± 2.8e-05 | – | –
2 | A39G G43A | 0.0004 ± 8.6e-05 | – | 5.25e-05 ± 1.8e-05 | 0.000109 ± 2.1e-05 | 0.000259 ± 4.9e-05 | 5960 ± 2100 | –
3 | A39G U65G | 0.0131 ± 0.0026 | 0.00068 ± 0.00014 | 0.00161 ± 0.00039 | 0.00553 ± 0.0018 | 0.0103 ± 0.0015 | 3200 ± 790 | 0.000177 ± 2.2e-05
4 | G37A U49G | 7.59e-05 ± 1.4e-05 | – | – | 4.94e-05 ± 1.8e-05 | 6.04e-05 ± 1.3e-05 | – | –
5 | G37A U65A | 0.000179 ± 2.2e-05 | – | – | 7.66e-05 ± 1.9e-05 | 0.000124 ± 1.4e-05 | 4340 ± 1300 | –
6 | G40A U56G | 0.0035 ± 0.00093 | 0.000189 ± 3e-05 | 0.000577 ± 7.7e-05 | 0.00224 ± 0.00044 | 0.00256 ± 0.00054 | 2840 ± 950 | 6e-05 ± 1.3e-05
7 | G38U C68G | 0.000246 ± 5.7e-05 | 0.000349 ± 0.00017 | 0.000294 ± 4.2e-05 | – | 0.000182 ± 4e-05 | 108 ± 52 | 6.28e-05 ± 1e-05
8 | A39G A48G | 0.000124 ± 2.2e-05 | – | – | 0.00013 ± 2.7e-05 | 0.000106 ± 1.4e-05 | – | –
9 | G37C U54C | 6.94e-05 ± 3e-05 | – | – | – | 3.48e-05 ± 7.4e-06 | – | –
10 | A39U A64G | 0.031 ± 0.012 | 0.00134 ± 0.00017 | 0.00498 ± 0.0006 | 0.0101 ± 0.0015 | 0.0327 ± 0.0047 | – | 0.000447 ± 5.6e-05
11 | G37C U45A | 0.00017 ± 2.9e-05 | – | 2.56e-05 ± 1.3e-05 | 4.81e-05 ± 9.9e-06 | 0.000109 ± 1.6e-05 | 5840 ± 1900 | –
12 | G38U A39G C50G | 3.57e-05 ± 8.1e-06 | – | – | – | – | – | –
13 | G37U U45A | < 1e-05 | < 1e-05 | – | – | – | – | –
14 | G37U C71A | 1.95e-05 ± 4.6e-06 | – | – | – | – | – | –
15 | G37U A52G | < 1e-05 | – | < 1e-05 | – | – | – | < 1e-05
16 | A39U C58G | 0.000106 ± 3.3e-06 | – | – | 2.25e-05 ± 1e-05 | 5.48e-05 ± 1.2e-05 | 9290 ± 520 | –
17 | G37U U54G | < 1e-05 | < 1e-05 | < 1e-05 | – | – | – | < 1e-05
18 | A39C C71G | 1.47e-05 ± 1.2e-06 | < 1e-05 | – | – | – | – | –

Row | Variant | kcat (glucosamine-6-phosphate [1]) [s⁻¹] | self-cleavage kobs at 160 uM GlcN6P (glucosamine-6-phosphate [2]) [s⁻¹] | self-cleavage kobs at 640 uM GlcN6P (glucosamine-6-phosphate [3]) [s⁻¹] | self-cleavage kobs at 2500 uM GlcN6P (glucosamine-6-phosphate [4]) [s⁻¹] | self-cleavage kobs at 10000 uM GlcN6P (glucosamine-6-phosphate [5]) [s⁻¹] | KM (glucosamine-6-phosphate [6]) [µM] | self-cleavage kobs at 40 uM GlcN6P (glucosamine-6-phosphate [7]) [s⁻¹]
19 | G38A C68A | < 1e-05 | – | – | – | < 1e-05 | – | < 1e-05
20 | G40U A64G | 0.000292 ± 2.9e-05 | – | 8.19e-05 ± 1.2e-05 | 0.000145 ± 2.8e-05 | 0.00026 ± 3.3e-05 | 1790 ± 360 | –
21 | G38A G59C | < 1e-05 | – | < 1e-05 | – | < 1e-05 | – | < 1e-05
22 | G37C G38U | < 1e-05 | – | < 1e-05 | < 1e-05 | – | – | < 1e-05
23 | A39C C68U | 0.000495 ± 6.5e-05 | 6.25e-05 ± 1.3e-05 | 0.000159 ± 1.7e-05 | 0.000367 ± 5.1e-05 | 0.000445 ± 4.9e-05 | 1180 ± 300 | 2.73e-05 ± 7e-06
24 | A39G G66C | 0.00327 ± 0.0016 | 0.000141 ± 3.4e-05 | 0.000484 ± 9.6e-05 | 0.00169 ± 0.00033 | – | – | 7.7e-05 ± 2.6e-05
25 | A39G G41U | 0.0014 ± 8.3e-05 | 0.000143 ± 2.9e-05 | 0.000467 ± 8.1e-05 | 0.000965 ± 0.00021 | 0.00119 ± 0.00016 | 1410 ± 140 | 3.41e-05 ± 9.8e-06
26 | A39U G41U | 0.00058 ± 0.00011 | 6.52e-05 ± 1.2e-05 | 0.000138 ± 1.7e-05 | 0.000402 ± 6.4e-05 | 0.000489 ± 6.8e-05 | 1710 ± 530 | –
27 | A39C G43U C68U | 9.32e-05 ± 1.5e-05 | – | – | 5.95e-05 ± 1.4e-05 | 7.63e-05 ± 1.8e-05 | 1780 ± 810 | –
28 | G40U C71G | 0.00552 ± 0.00087 | 0.000498 ± 8.3e-05 | 0.00193 ± 0.00025 | 0.00351 ± 0.00048 | 0.00519 ± 0.00058 | 1200 ± 280 | 0.000211 ± 2.1e-05
29 | G40U U46G | 0.00101 ± 0.00013 | 7.71e-05 ± 1.5e-05 | 0.000242 ± 3.9e-05 | 0.000669 ± 8.8e-05 | 0.000785 ± 0.00012 | 1860 ± 390 | 2.93e-05 ± 1.4e-05
30 | A39G U45G | 0.0109 ± 0.0044 | 0.00207 ± 0.00047 | 0.00416 ± 0.00099 | 0.00467 ± 0.0013 | 0.0173 ± 0.0023 | – | 0.00047 ± 6.3e-05
31 | G40C U69C | 7.37e-05 ± 2.1e-05 | – | – | 5.5e-05 ± 1.1e-05 | 5.63e-05 ± 1.4e-05 | – | –
32 | G38A C61A | < 1e-05 | – | – | – | – | – | –
33 | G38A C61G | 1.44e-05 ± 3.1e-06 | – | – | – | – | – | –
34 | G40C C61U | < 1e-05 | < 1e-05 | < 1e-05 | – | – | – | < 1e-05
35 | G40A C50G | < 1e-05 | – | – | – | – | – | –
